Assay results taken from patent US11078465B2, “Alcohol dehydrogenase mutant and application thereof in synthesis of diaryl chiral alcohols” (Jiangnan University, priority 2018, dated 2021).

Tests used:
Assay type in all cases: biochemical
[1] = test system: O=C(c1ccc(Cl)cc1)c1ccccn1; test: Kinetic analysis of alcohol dehydrogenase mutant (CPMK reduction, NADPH absorption at 340 nm); details: substrate CPMK, pH 7.0, 30° C.
Method: (§1) Adopting a total reaction system of 200 μL, including: 1.0 mM NADPH, 1.0 mM substrate CPMK and sodium phosphate buffer (PBS, 100 mM, pH 7.0), fully and evenly mixing, maintaining at 30° C. for 2 min, adding an appropriate amount of enzyme solution, and detecting the change in light absorption at 340 nm.
(§2) The enzyme activity was calculated by the following formula: Enzyme activity (U)=EW×V×10^3/(6220×I);
(§3) in the formula, EW is the change in absorbance at 340 nm in 1 min; V is the volume of a reaction solution in mL; 6220 is the molar extinction coefficient of NADPH in L/mol·cm); and 1 is the optical path distance in cm. One activity unit (U) corresponds to the amount of enzyme required to catalyze the oxidation of 1 μmol NADPH per minute under the above conditions.
(§4) A column used for purification was a nickel affinity column HisTrap FF crude, and purification was achieved through affinity chromatography using a histidine tag on recombinant protein. The nickel column was equilibrated with a solution A first, a crude enzyme solution was loaded, a penetrating peak was further eluted off using the solution A, and after equilibrium, a solution B (20 mM sodium phosphate, 500 mM NaCl, and 1000 mM imidazole, pH 7.4) was used for gradient elution to elute off the recombinant protein bound to the nickel column, so as to obtain the recombinant alcohol dehydrogenase mutant. The purified protein was subjected to activity measurement (CPMK as substrate, and NADPH as coenzyme) and SDS-PAGE analysis. […] The purified alcohol dehydrogenase protein was then replaced into a Tris-HCl (100 mM, pH 7.0) buffer using a Hi Trap Desalting column (GE Healthcare).
(§5) The activity of KpADH at different substrate concentrations and coenzyme concentrations was determined, and a double reciprocal curve was made based on the reciprocal of activity and substrate concentration to calculate kinetic parameters.
(§6) Two mutants of S237A and S237C valuable for modification of asymmetric synthesis R- and S- are obtained by random mutation screening, and the two sites are used as templates for random mutation. […] It can be known by combining the data in Tables 2 and 3 that the 214 site of alcohol dehydrogenase is a site that is important for determining selectivity improvement and inversion.

[2] = target: alcohol dehydrogenase KpADH (SEQ ID No. 2) mutant F320W/S237A (Vanderwaltozyma polyspora, UniProt A7TM80, form not given/S237A); test: as above; details: substrate CPMK, pH 7.0, 30° C.
Method: as §1, §2, §3, §4, §5, §6

[3] = target: alcohol dehydrogenase KpADH (SEQ ID No. 2) mutant F320V/S237A (Vanderwaltozyma polyspora, UniProt A7TM80, form not given/S237A); test: as above; details: substrate CPMK, pH 7.0, 30° C.
Method: as §1, §2, §3, §4, §5, §6

[4] = target: alcohol dehydrogenase KpADH, wild type (WT), SEQ ID No. 2 (Vanderwaltozyma polyspora, UniProt A7TM80); test: Kinetic analysis of alcohol dehydrogenase (CPMK reduction, NADPH absorption at 340 nm); design: unit not given here
Method: as §1, §2, §3, §4, §5

[5] = test system: O=C(c1ccc(Cl)cc1)c1ccccn1; test: Kinetic analysis of alcohol dehydrogenase mutant (CPMK reduction, NADPH absorption at 340 nm); details: other: E214G/S237C, substrate CPMK, pH 7.0, 30° C.
[6] = test system: O=C(c1ccc(Cl)cc1)c1ccccn1; test: Kinetic analysis of alcohol dehydrogenase (CPMK reduction, NADPH absorption at 340 nm); details: other: WT, substrate CPMK, pH 7.0, 30° C.
Method: as §1, §2, §3, §4, §5

alcohol dehydrogenase KpADH (SEQ ID No. 2) mutant S237C (Vanderwaltozyma polyspora DSM 70294; S237C)
Km ([1]; other: S237C): 1010 ± 100 µM | Vmax ([1]; other: S237C): 20.9 µM/min/mg | kcat ([1]; other: S237C): 13.9 ± 0.99 s⁻¹ | kcat/Km ([1]; other: S237C): 13800 ± 250 M⁻¹ s⁻¹

alcohol dehydrogenase KpADH (SEQ ID No. 2) mutant H249Y/S237C (Vanderwaltozyma polyspora DSM 70294; H249Y/S237C)
Km ([1]; other: H249Y/S237C): 980 ± 20 µM | Vmax ([1]; other: H249Y/S237C): 16.5 µM/min/mg | kcat ([1]; other: H249Y/S237C): 11 ± 0.83 s⁻¹ | kcat/Km ([1]; other: H249Y/S237C): 11200 ± 980 M⁻¹ s⁻¹

O=C(c1ccc(Cl)cc1)c1ccccn1 [CPMK, (4-chlorophenyl)-(pyridin-2-yl)-methanone]
Kcat [2]: 11.07 ± 0.25 s⁻¹ | Km [2]: 1660 ± 20 µM | Vmax [2]: 16.6 ± 0.37 µM/min/mg | Kcat [3]: 5.9 ± 0.09 s⁻¹ | Km [3]: 1150 ± 50 µM | Vmax [3]: 8.9 ± 0.78 µM/min/mg | Km [4]: 0.76

alcohol dehydrogenase KpADH (SEQ ID No. 2) mutant A269C/S237C (Vanderwaltozyma polyspora DSM 70294; A269C/S237C)
Km ([1]; other: A269C/S237C): 1560 ± 20 µM | Vmax ([1]; other: A269C/S237C): 22.6 µM/min/mg | kcat ([1]; other: A269C/S237C): 15.4 ± 0.86 s⁻¹ | kcat/Km ([1]; other: A269C/S237C): 9900 ± 360 M⁻¹ s⁻¹

alcohol dehydrogenase KpADH (SEQ ID No. 2) mutant M12, E214G/S237C (Vanderwaltozyma polyspora DSM 70294; E214G/S237C)
Km [5]: 310 ± 20 µM | Vmax [5]: 9.54 µM/min/mg | kcat [5]: 6.3 ± 0.11 s⁻¹ | kcat/Km [5]: 22100 ± 1370 M⁻¹ s⁻¹

alcohol dehydrogenase KpADH, wild type (WT), SEQ ID No. 2 (Vanderwaltozyma polyspora DSM 70294)
Km [6]: 760 ± 190 µM | Vmax [6]: 21.3 µM/min/mg | kcat [6]: 14.2 ± 1.16 s⁻¹ | kcat/Km [6]: 18700 ± 620 M⁻¹ s⁻¹

alcohol dehydrogenase KpADH (SEQ ID No. 2) mutant S237A (Vanderwaltozyma polyspora DSM 70294; S237A)
Km ([1]; other: S237A): 580 ± 30 µM | Vmax ([1]; other: S237A): 36.5 µM/min/mg | kcat ([1]; other: S237A): 24.4 ± 1.26 s⁻¹ | kcat/Km ([1]; other: S237A): 42000 ± 2360 M⁻¹ s⁻¹

alcohol dehydrogenase KpADH (SEQ ID No. 2) mutant L60F/S237C (Vanderwaltozyma polyspora DSM 70294; L60F/S237C)
Km ([1]; other: L60F/S237C): 1120 ± 20 µM | Vmax ([1]; other: L60F/S237C): 12.6 µM/min/mg | kcat ([1]; other: L60F/S237C): 8.4 ± 0.23 s⁻¹ | kcat/Km ([1]; other: L60F/S237C): 7500 ± 690 M⁻¹ s⁻¹
